Source: the supplement of paper PMC10065799, “High-throughput profiling of sequence recognition by tyrosine kinases and SH2 domains using bacterial peptide display” (eLife, 2023)

Tests used:
AncSZ = test: phosphorylation enrichment, bacterial display (enrichment ratio); higher = better substrate or ligand; peptides without Tyr show the background
EPHB1 = EPHB1 (UniProt P54762); test: as above
EPHB2 = EPHB2 (UniProt P29323); test: as above
FGFR1 = FGFR1 (UniProt P11362); test: as above
FGFR3 = FGFR3 (UniProt P22607); test: as above
Fer (mouse) = test: as above
Fes = Fes (UniProt P07332); test: as above
Fyn = Fyn (UniProt P06241); test: as above
Hck = Hck (UniProt P08631); test: as above
Jak2 = Jak2 (UniProt O60674); test: as above
MERTK = MERTK (UniProt Q12866); test: as above
c-Abl (mouse) = test: as above
c-Src = test: as above
Grb2 SH2 = Grb2 SH2 (UniProt P62993); test: SH2 binding enrichment of the phosphorylated peptide, bacterial display (enrichment ratio); higher = better substrate or ligand; peptides without Tyr show the background
SHP2-C SH2 = test: as above
c-Src SH2 = test: as above
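Throughout, for SH2 binding enrichment of the phosphorylated peptide, bacterial display: peptide library displayed on the E. coli surface as eCPX fusions, selected cells deep-sequenced, score is each peptide's frequency after selection divided by its frequency in the input.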
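Throughout, for phosphorylation enrichment, bacterial display: 11-residue human phosphosite peptides and single-mutation variants displayed on the E. coli surface, counted by deep sequencing, each peptide's frequency after selection divided by its frequency in the unselected input library; frequency after pTyr selection over input frequency; kinase dosed for 20-30% of maximal phosphorylation in three min.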

Chain of Jak2 (O60674 whole entry, looked up): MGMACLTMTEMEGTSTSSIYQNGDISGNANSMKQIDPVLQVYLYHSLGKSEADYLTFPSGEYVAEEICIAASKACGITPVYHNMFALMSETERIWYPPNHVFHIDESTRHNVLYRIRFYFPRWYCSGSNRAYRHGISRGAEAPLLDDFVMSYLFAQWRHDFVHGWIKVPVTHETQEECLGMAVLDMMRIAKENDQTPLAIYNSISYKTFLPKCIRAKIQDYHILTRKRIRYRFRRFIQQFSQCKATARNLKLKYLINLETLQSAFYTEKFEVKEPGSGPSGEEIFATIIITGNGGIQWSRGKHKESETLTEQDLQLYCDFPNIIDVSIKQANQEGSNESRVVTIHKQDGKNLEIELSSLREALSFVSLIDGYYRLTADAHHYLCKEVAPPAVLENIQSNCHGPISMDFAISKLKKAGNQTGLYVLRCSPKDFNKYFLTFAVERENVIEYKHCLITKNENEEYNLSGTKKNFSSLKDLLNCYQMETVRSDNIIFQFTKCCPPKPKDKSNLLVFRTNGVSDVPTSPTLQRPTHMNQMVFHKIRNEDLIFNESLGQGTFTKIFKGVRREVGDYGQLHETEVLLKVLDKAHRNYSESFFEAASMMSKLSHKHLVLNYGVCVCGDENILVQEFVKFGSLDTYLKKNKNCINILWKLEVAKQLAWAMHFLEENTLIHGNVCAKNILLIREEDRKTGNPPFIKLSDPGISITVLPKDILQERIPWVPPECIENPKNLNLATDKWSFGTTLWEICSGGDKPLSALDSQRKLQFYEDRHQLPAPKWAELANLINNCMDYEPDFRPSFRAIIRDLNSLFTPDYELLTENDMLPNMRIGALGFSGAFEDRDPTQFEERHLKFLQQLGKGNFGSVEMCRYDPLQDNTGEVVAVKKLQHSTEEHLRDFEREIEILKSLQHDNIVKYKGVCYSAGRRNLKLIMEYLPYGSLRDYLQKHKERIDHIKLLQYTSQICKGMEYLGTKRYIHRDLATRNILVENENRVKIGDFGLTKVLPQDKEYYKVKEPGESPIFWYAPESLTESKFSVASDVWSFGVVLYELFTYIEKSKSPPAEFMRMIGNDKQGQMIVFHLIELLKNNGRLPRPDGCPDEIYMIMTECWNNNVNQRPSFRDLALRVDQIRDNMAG
Chain of Fes (P07332 whole entry, looked up): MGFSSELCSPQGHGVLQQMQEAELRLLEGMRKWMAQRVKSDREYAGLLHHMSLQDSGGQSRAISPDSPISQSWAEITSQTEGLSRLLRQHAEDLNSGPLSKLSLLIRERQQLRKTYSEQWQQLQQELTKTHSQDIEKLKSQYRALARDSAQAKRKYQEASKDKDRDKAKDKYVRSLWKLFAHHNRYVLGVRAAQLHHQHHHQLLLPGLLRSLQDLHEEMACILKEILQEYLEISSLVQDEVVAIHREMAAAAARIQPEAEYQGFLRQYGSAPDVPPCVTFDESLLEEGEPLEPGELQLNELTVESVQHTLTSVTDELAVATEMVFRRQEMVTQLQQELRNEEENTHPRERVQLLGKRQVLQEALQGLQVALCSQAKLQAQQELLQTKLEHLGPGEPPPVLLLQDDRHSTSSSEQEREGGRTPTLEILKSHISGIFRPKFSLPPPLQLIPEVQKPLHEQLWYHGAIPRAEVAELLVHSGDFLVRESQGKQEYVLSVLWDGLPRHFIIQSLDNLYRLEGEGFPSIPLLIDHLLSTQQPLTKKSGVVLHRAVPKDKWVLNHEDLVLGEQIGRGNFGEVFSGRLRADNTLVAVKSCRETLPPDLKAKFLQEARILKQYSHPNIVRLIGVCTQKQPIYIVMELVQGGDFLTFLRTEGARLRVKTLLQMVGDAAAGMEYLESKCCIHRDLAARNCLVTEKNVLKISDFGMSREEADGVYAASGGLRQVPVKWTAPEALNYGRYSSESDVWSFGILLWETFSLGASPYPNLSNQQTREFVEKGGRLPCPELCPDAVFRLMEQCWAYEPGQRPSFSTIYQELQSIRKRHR
Chain of EPHB1 (P54762 whole entry, looked up): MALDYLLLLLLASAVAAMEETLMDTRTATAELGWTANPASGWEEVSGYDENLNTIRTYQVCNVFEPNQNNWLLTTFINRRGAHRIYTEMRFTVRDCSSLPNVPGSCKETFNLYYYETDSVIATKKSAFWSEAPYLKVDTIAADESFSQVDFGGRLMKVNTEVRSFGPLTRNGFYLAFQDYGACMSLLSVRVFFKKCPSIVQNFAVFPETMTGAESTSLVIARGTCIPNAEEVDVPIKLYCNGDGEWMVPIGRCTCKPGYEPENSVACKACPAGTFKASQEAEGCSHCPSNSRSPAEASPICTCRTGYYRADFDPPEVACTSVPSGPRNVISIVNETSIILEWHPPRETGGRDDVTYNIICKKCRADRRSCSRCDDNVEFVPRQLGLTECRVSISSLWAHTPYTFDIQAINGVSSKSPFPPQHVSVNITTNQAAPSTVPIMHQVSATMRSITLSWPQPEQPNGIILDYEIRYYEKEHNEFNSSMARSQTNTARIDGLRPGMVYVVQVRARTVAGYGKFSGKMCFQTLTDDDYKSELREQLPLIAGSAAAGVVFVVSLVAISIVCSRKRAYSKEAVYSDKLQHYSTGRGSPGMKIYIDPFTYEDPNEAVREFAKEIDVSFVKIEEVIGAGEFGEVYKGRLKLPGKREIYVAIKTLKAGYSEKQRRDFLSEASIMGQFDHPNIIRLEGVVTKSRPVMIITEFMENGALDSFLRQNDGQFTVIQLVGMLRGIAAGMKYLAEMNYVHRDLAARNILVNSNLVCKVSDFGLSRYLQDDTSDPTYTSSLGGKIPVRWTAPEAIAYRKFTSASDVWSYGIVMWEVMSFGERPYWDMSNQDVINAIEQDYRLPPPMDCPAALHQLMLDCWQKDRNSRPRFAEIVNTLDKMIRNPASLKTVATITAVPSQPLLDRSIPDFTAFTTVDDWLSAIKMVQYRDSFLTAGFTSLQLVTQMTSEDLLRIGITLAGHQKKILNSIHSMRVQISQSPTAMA
Chain of Hck (P08631 whole entry, looked up): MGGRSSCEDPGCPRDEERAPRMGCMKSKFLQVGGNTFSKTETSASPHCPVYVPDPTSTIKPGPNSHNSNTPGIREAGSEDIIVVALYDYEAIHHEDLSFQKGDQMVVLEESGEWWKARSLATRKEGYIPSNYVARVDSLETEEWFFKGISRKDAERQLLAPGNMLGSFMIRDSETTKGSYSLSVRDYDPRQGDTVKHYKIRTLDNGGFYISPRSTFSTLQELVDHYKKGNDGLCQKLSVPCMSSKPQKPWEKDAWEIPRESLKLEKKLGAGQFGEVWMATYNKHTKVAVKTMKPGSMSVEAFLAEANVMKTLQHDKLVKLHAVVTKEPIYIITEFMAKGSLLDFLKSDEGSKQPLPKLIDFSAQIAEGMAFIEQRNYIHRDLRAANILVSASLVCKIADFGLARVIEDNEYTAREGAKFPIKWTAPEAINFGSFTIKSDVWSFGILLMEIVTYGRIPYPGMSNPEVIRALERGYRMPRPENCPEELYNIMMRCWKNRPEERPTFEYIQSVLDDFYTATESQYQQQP
Chain of FGFR3 (P22607 whole entry, looked up): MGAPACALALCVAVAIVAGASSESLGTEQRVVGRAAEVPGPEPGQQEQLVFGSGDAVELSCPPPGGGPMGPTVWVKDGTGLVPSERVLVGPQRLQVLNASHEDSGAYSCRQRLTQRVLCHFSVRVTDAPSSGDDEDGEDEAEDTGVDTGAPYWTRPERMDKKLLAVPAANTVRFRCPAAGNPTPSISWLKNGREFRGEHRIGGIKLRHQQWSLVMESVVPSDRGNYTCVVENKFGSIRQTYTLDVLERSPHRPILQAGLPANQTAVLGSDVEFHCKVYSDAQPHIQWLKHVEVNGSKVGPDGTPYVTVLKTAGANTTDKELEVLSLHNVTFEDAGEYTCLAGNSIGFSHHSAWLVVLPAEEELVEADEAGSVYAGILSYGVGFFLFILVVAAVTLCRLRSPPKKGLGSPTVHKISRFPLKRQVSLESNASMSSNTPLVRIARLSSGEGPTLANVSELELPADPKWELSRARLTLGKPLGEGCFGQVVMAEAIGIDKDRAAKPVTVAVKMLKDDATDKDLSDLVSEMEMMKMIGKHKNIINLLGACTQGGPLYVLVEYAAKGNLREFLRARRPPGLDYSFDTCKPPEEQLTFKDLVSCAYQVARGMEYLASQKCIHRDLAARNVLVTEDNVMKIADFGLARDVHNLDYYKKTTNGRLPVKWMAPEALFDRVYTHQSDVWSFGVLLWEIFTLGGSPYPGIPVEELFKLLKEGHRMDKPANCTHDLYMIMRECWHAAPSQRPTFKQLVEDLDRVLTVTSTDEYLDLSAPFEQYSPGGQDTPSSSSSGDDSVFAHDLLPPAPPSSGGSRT
Chain of Fyn (P06241 whole entry, looked up): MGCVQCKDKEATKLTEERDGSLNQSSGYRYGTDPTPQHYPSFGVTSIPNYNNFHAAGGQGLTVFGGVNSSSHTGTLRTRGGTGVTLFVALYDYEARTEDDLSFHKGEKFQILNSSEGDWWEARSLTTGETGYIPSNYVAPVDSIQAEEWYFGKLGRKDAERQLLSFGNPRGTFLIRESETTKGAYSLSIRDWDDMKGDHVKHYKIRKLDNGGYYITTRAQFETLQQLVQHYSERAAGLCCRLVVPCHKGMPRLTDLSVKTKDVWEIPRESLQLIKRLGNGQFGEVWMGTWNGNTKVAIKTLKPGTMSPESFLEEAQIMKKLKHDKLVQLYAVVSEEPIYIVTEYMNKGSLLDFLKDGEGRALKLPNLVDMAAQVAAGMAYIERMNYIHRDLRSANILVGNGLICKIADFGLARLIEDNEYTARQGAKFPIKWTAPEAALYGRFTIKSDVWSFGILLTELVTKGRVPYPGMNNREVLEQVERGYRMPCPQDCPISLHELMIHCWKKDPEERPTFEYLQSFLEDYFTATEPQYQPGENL

| SH2 binding enrichment (Grb2 SH2) | SH2 binding enrichment (SHP2-C SH2) | SH2 binding enrichment (c-Src SH2) | Sequence | phosphorylation enrichment (AncSZ) | phosphorylation enrichment (EPHB1) | phosphorylation enrichment (EPHB2) | phosphorylation enrichment (FGFR1) | phosphorylation enrichment (FGFR3) | phosphorylation enrichment (Fer (mouse)) | phosphorylation enrichment (Fes) | phosphorylation enrichment (Fyn) | phosphorylation enrichment (Hck) | phosphorylation enrichment (Jak2) | phosphorylation enrichment (MERTK) | phosphorylation enrichment (c-Abl (mouse)) | phosphorylation enrichment (c-Src) |
| --- | --- | --- | --- | --- | --- | --- | --- | --- | --- | --- | --- | --- | --- | --- | --- | --- |
| 1.1 | 0.555 | 0.633 | LSQDVYEEDSY [RET_Y900_R897Q] | 1.53 | 0.966 | 1.19 | 0.695 | 1.04 | 0.835 | 1.71 | 0.782 | 0.497 | 1.76 | 0.584 | 1.13 | 0.856 |
| 1.13 | 1.1 | 0.567 | LSSISYVGCSL [ADGRD1_Y571] | 1.01 | 0.76 | 1.11 | 0.719 | 0.838 | 0.445 | 1.01 | 0.681 | 0.747 | 0.871 | 0.541 | 0.79 | 0.605 |
| 0.874 | 1.01 | 0.634 | LVKDGYQMAQP [CSF1R_Y873] | 0.609 | 0.39 | 0.392 | 0.45 | 0.527 | 0.462 | 0.723 | 0.357 | 0.499 | 0.512 | 0.32 | 0.691 | 0.396 |
| 0.693 | 0.73 | 0.504 | LYDPDYMKVIL [CYP4A22_Y104] | 1.96 | 2.9 | 2.61 | 1.54 | 1.07 | 1.48 | 1.54 | 0.72 | 0.787 | 2.27 | 1.51 | 1.36 | 0.988 |
| 1.1 | 0.544 | 0.473 | LYSDHYSPSGR [TMPRSS12_Y23] | 1.27 | 4.19 | 2.91 | 1.14 | 0.958 | 16.8 | 1.03 | 1.01 | 2.01 | 1.41 | 28.8 | 1.54 | 2.15 |
| 0.819 | 0.857 | 0.478 | MAALSYVSEIG [BPIFB2_Y36_K31M] | 0.642 | 0.397 | 0.521 | 0.447 | 0.584 | 0.394 | 0.733 | 0.432 | 0.4 | 0.804 | 0.371 | 0.615 | 0.431 |
| 0.803 | 0.768 | 0.518 | MALDIYRASFF [ALK_Y1278_R1275L_YF] | 0.936 | 0.599 | 0.584 | 0.558 | 0.767 | 0.599 | 0.953 | 1.06 | 1.22 | 0.715 | 0.776 | 4.88 | 1.05 |
| 0.769 | 0.752 | 0.488 | MKALGYFAVVT [OPA1_Y498] | 1.25 | 0.852 | 0.773 | 0.579 | 0.996 | 0.655 | 1.53 | 0.63 | 0.825 | 1.62 | 0.403 | 0.892 | 0.436 |
| 0.965 | 0.664 | 7.82 | MPPHIYAITDT [MYH9_Y151] | 0.709 | 1.4 | 0.514 | 0.59 | 0.514 | 0.679 | 0.936 | 1.73 | 1.22 | 0.68 | 4.75 | 0.922 | 2.26 |
| 1.06 | 0.782 | 0.683 | MPQNEYIELHC [NSA2_Y6_R11C] | 1.39 | 1.2 | 0.862 | 3.95 | 2.58 | 0.557 | 1.2 | 0.615 | 0.626 | 0.939 | 0.478 | 0.658 | 0.625 |
| 0.794 | 0.486 | 0.402 | MRALIYNSSTA [PLEKHA7_Y243] | 0.834 | 0.507 | 0.453 | 0.448 | 0.493 | 0.424 | 0.772 | 0.622 | 0.647 | 0.8 | 0.465 | 0.741 | 0.724 |
| 0.785 | 0.576 | 0.48 | MRTMGYMPREM [CABP5_Y62_T65R] | 0.494 | 0.369 | 0.374 | 0.397 | 0.508 | 0.411 | 0.594 | 0.438 | 0.405 | 0.606 | 0.435 | 0.507 | 0.356 |
| 1.11 | 0.617 | 0.452 | MSDVPYVMNRG [ACAT1_Y161_N158D] | 0.669 | 0.4 | 0.452 | 0.403 | 0.501 | 0.42 | 0.68 | 0.316 | 0.358 | 0.652 | 0.348 | 0.549 | 0.439 |
| 0.918 | 0.804 | 1.34 | MSRDVYSIDYY [NTRK2_Y702_T704I] | 1.54 | 1.47 | 1.73 | 4.29 | 3.12 | 1.22 | 0.9 | 8.72 | 4 | 0.825 | 7.16 | 0.538 | 6.79 |
| 0.906 | 1.82 | 1.53 | MSRYIYSTDYY [NTRK1_Y676_D674Y] | 2.16 | 8.88 | 11.4 | 8.47 | 6.27 | 1.89 | 1.41 | 6.8 | 5.21 | 2.09 | 12.3 | 0.879 | 7.15 |
| 0.784 | 0.544 | 0.485 | MSSHHYDFKKF [ZNF445_Y428_YF] | 0.466 | 0.533 | 0.311 | 0.339 | 0.346 | 0.308 | 0.462 | 0.384 | 0.362 | 0.382 | 0.376 | 0.39 | 0.415 |
